Measured values published in patent EP0730609B1 (SMITHKLINE BEECHAM CORPORATION, dated 2005).

How the values were obtained:
[1] = target: T1, recombinant human IL4 (E. coli, non-glycosylated) (human, UniProt P05112 25-153); assay: cell-based or functional assay
T1 sequence (looked up): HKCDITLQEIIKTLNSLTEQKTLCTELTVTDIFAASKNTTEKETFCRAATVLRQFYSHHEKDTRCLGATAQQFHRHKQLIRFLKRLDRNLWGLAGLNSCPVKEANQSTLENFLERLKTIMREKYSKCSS

[2] = target: T1, recombinant human IL4 (E. coli, …); assay: titration microcalorimetry, 25°C, pH 7.4, 150 mM NaCl
[3] = target: T1, recombinant human IL4 (E. coli, …); assay: titration microcalorimetry, measured at 60°C and calculated for 25°C, pH 7.4, 150 mM NaCl

B cell (inhibition of IL4-stimulated B lymphocyte proliferation), IC50 [1]: 47 pM | CD23 induction (inhibition of IL4-induced CD23 expression on B lymphocytes), IC50 [1]: 333 pM | IgE synthesis (inhibition of IL4-driven IgE secretion), IC50 [1]: 54 pM | T cell (inhibition of IL4-stimulated T lymphocyte proliferation), IC50 [1]: 44 pM | -TΔS [2]: 8.2 kcal/mol IL4 | ΔG [2]: -13.6 kcal/mol IL4 | ΔH [2]: -21.8 kcal/mol IL4 | Kd [3]: 11 pM
B1: humanized 3B9 (IgG1) (antibody, V domains shown)
VH: QVTLRESGPALVKPTQTLTLTCTFSGFSLSTSGMGVSWIRQPPGKGLEWLAHIYWDDDKRYNPSLKSRLTISKDTSRNQVVLTMTNMDPVDTATYYCARRETVFYWYFDVWGRGTPVTVSS
VL: IVMTQSPDSLAVSLGERATINCKASQSVDYDGDSYMNWYQQKPGQPPKLLIYAASNLESGVPDRFSGSGSGTDFTLTISSLQAEDVAVYYCQQSNEDPPRFGGGTKVEIKR
